In patent USRE39192E1, “Supplemented and unsupplemented tissue sealants, methods of their production and use” (American National Red Cross, priority 1990, dated 2006):
Where a name gives a salt, the structure may show the parent alone.

B1: FGF-4: recombinant fibroblast growth factor-4 (protein, UniProt P08620 31-206, looked up)
Fibroblast growth factor 4: APTAPNGTLEAELERRWESLVALSLARLPVAAQPKEAAVQSGAGDYLLGIKRLRRLYCNVGIGFHLQALPDGRIGGAHADTRDSLLELSPVERGVVSIFGVASRFFVAMSSKGKLYGSPFFTDECTFKEILLPNNYNAYESYKYPGMFIALSKNGKTKKGNRVSPTMKVTHFLPRL

Experiments:
[1] = Washout of 125I-HBGF-1 from FG-treated PTFE grafts in rabbit aortas; assay type: in vivo, New Zealand white rabbits
Procedure: In general, the modified F was sterilely prepared by adding approximately 1 ng/cm^2 area of the inner and outer graft surfaces of human recombinant […], 20 μg/cm^2 porcine intestinal mucosal heparin, and 2.86 mg/cm^2 fibrinogen to 2.86×10^−2 U/cm^2 reconstituted, commercially available, human thrombin (1000 U/ml) to induce polymerization.
The […] was specifically prepared as follows. Fibrinogen was reconstituted by adding 500 mg of fibrinogen into 25 ml of PBS to produce a fibrinogen concentration of 20 mg/ml of PBS. Three ml of this solution which contained 60 mg fibrinogen were placed into […] Eppendorf plastic tubes and maintained at −70° C. Each of these aliquots was used individually.
The thrombin was reconstituted by diluting a commercially available preparation thereof (Armour Pharmaceutical Co., Kankakee, Ill.) at a concentration of 1000 U/ml by a factor of 1:10 in sterile solution to produce a concentration of 100 U/ml. This thrombin solution was again diluted 1:10 to produce a solution of 10 U/ml.
The bovine heparin (Upjohn, Kalamazoo, Mich.) was reconstituted by diluting the preparation at a concentration of 1000 U/ml by a factor of 1:1000 using normal saline.
One and 48/100 (1.48) ml of the reconstituted fibrinogen, 63 μL of the reconstituted heparin, plus 15.66 μL of ^125I-HBGF-1 were mixed in a glass scintillation tube. This mixture was then aspirated into a 3 ml plastic syringe. Five ml of the reconstituted thrombin was placed into a glass scintillation tube.
One end of the expanded PTFE graft was placed over a plastic-3 way stopcock nozzle and was secured there with a 2-0 silk tie. The PTFE was then encircled with a 3×3 cm square of Parafilm™ which was then crimped there with a straight hemostat to establish a watertight seal. A second 2-0 silk tie was positioned over the parafilm adjacent to the stopcock to form another seal. A straight hemostat was then used to clamp the distal 2 mm of the PTFE/parafilm to seal this end.
Equal volumes of fibrinogen and thrombin solution prepared as described above were mixed and allowed to react for approximately 30 seconds which is when polymerization occurs. The thrombin-polymerized fibrin is then opaque. (This time factor is approximate and varies from one thrombin lot to another. The appropriate length of time to polymerization can be determined by viewing the opacity of the mixture). The fibrin/thrombin mixture was aspirated into a one cc syringe. (NOTE: The volume of this graft was 0.42 ml. For a graft with a larger volume one needs to use a larger syringe). […] The treated graft was then ready for implantation. […]

[2] = tested on: human dermal fibroblasts (HDFs); assay: Cell chemotaxis assay (modified Boyden's chamber), human dermal fibroblasts; assay type: cell-based
From the text: (§1) NIH/3T3 fibroblasts at passage 126 were purchased from the American Type Culture Collection, Rockville, Md. Cultures from passages 129-133 were used in the chemotaxis assays. Cultures were propagated in DMEM supplemented with 10%. Calf serum and approximately 1% antibiotic antimycotic solution. Human dermal fibroblasts (HDFs) were purchased from Clonetics, Inc. (San Diego, Calif.) at passage 2. Cultures from passages 3-5 were used in the chemotaxis assays. Cultures were cultivated in DMEM supplemented with 20% FBS (Hyclone Laboratories, Inc., Logan, Utah) and approximately 1% antibiotic antimycotic solution (Gibco, Grand Island, N.Y.).
(§2) The procedure used to determine cellular chemotaxis was a combination of two known methodologies. A modification of Boyden's chamber was used as follows: Millicell-PCF (Millipore, Inc., Bedford, Mass.) (12.0 μm) 12.0 mm diameter inserts were placed in individual wells of 24 well plates to create the upper and lower chemotaxis chambers. Chemotaxis results were arrived at by performing checkerboard analysis for every combination of cells and growth factors. Concentrations ranging from 0.1, 1, 10, 100 ng/ml with/without added heparin (10 U/ml) were used for FGF-1, FGF-2 (no heparin) and FGF-4 with all the cell types mentioned in the materials section. Briefly, cultures were trypsanized and placed in DMEM+0.1% Bovine Serum Albumin (BSA) (Sigma Chemical Co., St. Louis, Mo.) for approximately one hour at 37° C. in a 5% CO2 humidified chamber. Tow to 2.5×10^5 cells in 50 μl were added per insert to the upper chamber of the setup of the 24 well plates. Treatments were added as mentioned above. The assay was kept at 37° C. in a 5% CO2 humidified chamber for 4 hours. All combinations tested were performed in triplicate. At the end of 4 hours, the plates were removed from the incubator and the filters were stained following the protocol for staining included with the Millicell-PCT inserts. Briefly, the fluid surrounding the inside and outside of the Millicell-PCF inserts were removed. Three percent glutaraldehyde (Sigma Chemical Co., St. Louis, Mo.) was added to the outside and inside of the inserts for approximately 20 minutes. Following removal of the 3.0% glutaraldehyde, 0.5% Triton X-100 (E.M. Science, Cherry Hill, N.J.) was added for 5-7 minutes. On removal of the 0.5% Triton X-100, Fisher's Hematoxylin Solution Gill's Formulation (Fisher Scientific, Newark, Del.) No.1 was added for about 10 minutes. This solution was washed off in running distilled water for about 5 minutes. Using a cotton swab the upper side of the filter was swabbed to remove cells which had not migrated. Filters, were mounted lower side facing up on slides in Crystal Mount™ (Biomedia, Inc., Foster City, Calif.) solution and 10 random field were counted per slide both visually at 400× and at 200×using an Image Analyzing System to automate the enumeration of the cells on the underside of the filters.
(§3) As required, checkerboard analysis was carried out to determine random migration, and positive and negative chemotaxis. Growth factors were added to the upper and/or lower chambers to observe whether cells migrated towards the GF alone (chemotaxis), whether migration was random irrespective of whether the growth factor was added to the upper or lower well (chemokinesis) or whether cell migration was against the chemotactic gradient (negative chemotaxis).

[3] = tested on: human dermal fibroblasts (HDFs); assay: Cell migration assay to FGF released from FG; assay type: cell-based; settings: 24 hours
Procedure: FIG. 41. Graph showing the dose-response relationship of the chemotactic response of HDFs to FGF-4 in solution and in FG. FGF-4 was incorporated into FG and placed in the bottom well of chemotaxis chambers. The amount of FGF in the FG was sufficient to result in the indicated concentrations when evenly distributed throughout the FG and medium in the lower chamber. Negative controls included medium alone and FG without FGF. Medium containing FGF-4 at a concentration of […] in the lower chamber was utilized as a positive control.
Chemotaxis chambers and cells were utilized as described above. Fifty μl of 8 mg/ml Topical Fibrinogen Complex (TFC, American Red Cross, Rockville, Md.) was added to the bottom of 24 well plates. Forty μl of test growth factor+/−heparin at a final concentration of 10 U/ml (FGF-1, FGF-4 with heparin, FGF-2 alone) was added to the TFC and thoroughly mixed. Ten μl of bovine Thrombin (Armour Pharmaceutical Company, Kankakee, Ill.) was added and mixed thoroughly. The components were allowed to gel at room temperature for approximately 30 minutes. Total volume in the lower and upper chambers was made up to 0.5 ml each with DMEM+0.1% BSA. The concentration of the FGF's added to the TFC was adjusted to produce the desired overall concentration as determined by: [formula] The assay was performed at 37° C. in a5% CO2 humidified chamber for approximately 24 hours. […]

NIH 3T3 fibroblasts = assay: Cell chemotaxis assay (modified Boyden's chamber), NIH 3T3 fibroblasts; assay type: cell-based; settings: for concentration of maximum stimulation of migration: FGF-1 in the presence of 10 U/ml heparin
From the text: as §1
as §2, with “Concentrations ranging from 0.1, 1, 10, 100 ng/ml with/without added heparin (10 U/ml) were used for FGF-1, FGF-2 (no heparin) and FGF-4 with all the cell types mentioned in the materials section.” left out
as §3

E. coli = assay: Antimicrobial activity of AB released from AB-FG (zone of inhibition); assay type: cell-based; settings: eluates on agar plates, 18 hours at 37° C.
Procedure: FIG. 27. […] Then the diameter of the zone of inhibition was measured.
In order to measure the concentration and biological activity of the TFT which had been released from the TFT-FG disks, the eluted TFT was thawed and was analyzed spectrophotometrically at 320 nm and/or biologically by the inhibition of E. coli grown on agar plates.
The antimicrobial activity of the AB released from the AB-FG was estimated by measuring the diameters of the zones of inhibition generated by the eluate from the 6 mm diameter disks form the daily collected PBS or saliva surrounding the AB-FG. The eluates from unsupplemented FG served as controls. AB solutions of knwon concentration were used as standards. […] To make the culture plates, 100 μl of the bacterial cell suspension, containing approximately 10^8 cells/ml, was mixed with 3 ml of top agar at 50° C. and immediately poured onto the plate hard, bottom agar to make a uniform layer of cells. The plates were incubated at 37° C. for 18 hours.

Molecule	checkerboard analysis [2]	concentration of maximum stimulation of migration [2] [mg/mL]	maximal migratory response over negative control [2] [fold]	checkerboard analysis (NIH 3T3 fibroblasts)	concentration of maximum stimulation of migration (NIH 3T3 fibroblasts) [ng/mL]	antimicrobial activity of released AB (E. coli)	other results
^125I-HBGF-1: radiolabelled human recombinant HBGF-1 in FG applied to PTFE grafts							remaining 125I-HBGF-1, percentage of the zero time value ([1]; after 1 week): 13.44%±6.9%; washout of 125I-HBGF-1 ([1]; after 1 hr): −0.03 %/min; remaining 125I-HBGF-1, percentage of the zero time value ([1]; after 30 days): 3.8%±1.1%; washout of 125I-HBGF-1 ([1]; between 5 and 60 minutes): −24.1 %/min
FGF-2: recombinant fibroblast growth factor-2	chemotactic	10	12	chemotactic	1		concentration in FG eliciting peak chemotactic response [3]: 0.01 mg/mL
Cc1ncc([N+](=O)[O-])n1CCO [MET, Metronidazole]						parallels the profiles determined spectrophotometrically	
O=C(O)c1cn(C2CC2)c2cc(N3CCNCC3)c(F)cc2c1=O [CIP, Ciprofloxacin HCl]						parallels the profiles determined spectrophotometrically	
B1	chemotactic	10	10	chemotactic	10		incorporated and total concentration in FG eliciting maximal migratory response [3]: 1 ng/mL
